# According to US20170247448A1 (INTRINSIC LIFESCIENCES, published 2017):
# How the values were obtained:
# [1] = target: T1, BAP070-hum01; assay: C-ELISA: goat anti-human Fc coated plate, antibody captured (30 ng/well per title of FIG. 20D), unlabelled hepcidin titrated (ng/well per axis of FIG. 20D) against a labelled tracer not named for this figure; OD = tracer left on the antibody
# T1 construct: Expressed as soluble IgG1 in CHO cells, tested as supernatant; The entries stop inside FR4 (...WGQG / ...FG); also called humanized hit 1
# [2] = target: T2, BAP070-hum04; assay: as above
# T2 construct: Expressed as soluble IgG1 in CHO cells, tested as supernatant; The entries stop inside FR4
# [3] = target: T3, BAP070-hum02; assay: as above
# T3 construct: Expressed as soluble IgG1 in CHO cells, tested as supernatant; The entries stop inside FR4
# [4] = target: T1, BAP070-hum01; assay: C-ELISA: goat anti-human Fc coated plate, antibody captured, unlabelled hepcidin titrated against a labelled tracer not named for this figure; the EC50 row has 7 cells under 8 columns and is assigned in order to the 7 antibodies with human Fc
# [5] = target: T2, BAP070-hum04; assay: as above
# [6] = target: T4, BAP070-hum05; assay: as above
# T4 construct: Expressed as soluble IgG1 in CHO cells, tested as supernatant; The entries stop inside FR4
# [7] = target: T5, BAP070-hum06; assay: as above
# T5 construct: Expressed as soluble IgG1 in CHO cells, tested as supernatant; The entries stop inside FR4
# [8] = target: T3, BAP070-hum02; assay: as above
# [9] = target: T6, BAP070-hum03; assay: as above
# T6 construct: Expressed as soluble IgG1 in CHO cells, tested as supernatant; The entries stop inside FR4
# [10] = target: T7, BAP070-01 (human-mouse chimeric MAb 583); assay: as above
# T7 construct: used as CHO cell supernatant; also called BAP070-1
# [11] = target: T8, MAb 583; assay: C-ELISA with purified MAb 583; competitor NT-biotin hepcidin-25
# T8 construct: Murine monoclonal, Protein A purified
# [12] = target: T7, BAP070-01 (human-mouse chimeric MAb 583); assay: C-ELISA, BAP070-01 supernatant on Protein G; competitor NT-biotin hepcidin-25; four parameter fit
# Experimental: The plate was washed with TBST and one (1) ng/well of NT-biotin hepcidin-25 was mixed with different amounts (0-100 ng) of synthetic hepcidin-25 standard in TBST, 0.25% BLOTTO and added onto the plate to bind competitively. The plate was washed with TBST and SA-HRP (1:2500) added and allowed to bind for 1 hour.
# The plate was washed with TBST and […] substrate added and the reaction stopped after 10 minutes with stop solution. Absorbance at 450 nm was measured on a spectrophotometer.
# [13] = target: T1, BAP070-hum01; assay: C-ELISA on goat anti-human Fc coat, hepcidin titrated against a labelled tracer not named for this figure
# [14] = target: T2, BAP070-hum04; assay: as above
# [15] = target: T4, BAP070-hum05; assay: as above
# [16] = target: T5, BAP070-hum06; assay: as above
# [17] = target: T3, BAP070-hum02; assay: as above
# [18] = target: T6, BAP070-hum03; assay: as above
# [19] = target: T7, BAP070-01 (human-mouse chimeric MAb 583); assay: as above
# T3 sequence (VH, as listed by the source, chain 1 of 2): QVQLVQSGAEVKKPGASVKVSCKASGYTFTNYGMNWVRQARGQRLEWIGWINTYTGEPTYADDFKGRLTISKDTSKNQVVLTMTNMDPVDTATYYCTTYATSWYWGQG
# T3 sequence (VL, as listed by the source, chain 2 of 2): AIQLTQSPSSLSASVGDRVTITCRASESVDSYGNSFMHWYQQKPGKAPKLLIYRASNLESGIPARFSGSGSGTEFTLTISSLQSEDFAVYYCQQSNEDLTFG
# T2 sequence (VL, as listed by the source, chain 2 of 2): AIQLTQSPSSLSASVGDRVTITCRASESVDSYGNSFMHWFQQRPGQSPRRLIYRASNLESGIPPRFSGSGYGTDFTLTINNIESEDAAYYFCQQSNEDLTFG
# T1 sequence (VL, as listed by the source, chain 2 of 2): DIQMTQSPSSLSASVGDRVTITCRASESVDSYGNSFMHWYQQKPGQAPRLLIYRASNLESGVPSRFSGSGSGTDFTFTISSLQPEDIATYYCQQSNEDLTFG
# T7 sequence (VH, as listed by the source, chain 1 of 2): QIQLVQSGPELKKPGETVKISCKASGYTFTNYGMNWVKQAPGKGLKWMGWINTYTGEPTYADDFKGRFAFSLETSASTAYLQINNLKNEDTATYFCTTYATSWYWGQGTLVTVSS
# T7 sequence (VL, as listed by the source, chain 2 of 2): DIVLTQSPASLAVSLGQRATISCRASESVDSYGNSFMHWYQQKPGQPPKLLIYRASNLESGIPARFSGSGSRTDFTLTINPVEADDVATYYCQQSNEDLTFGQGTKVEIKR
# T5 sequence (VH, as listed by the source, chain 1 of 2): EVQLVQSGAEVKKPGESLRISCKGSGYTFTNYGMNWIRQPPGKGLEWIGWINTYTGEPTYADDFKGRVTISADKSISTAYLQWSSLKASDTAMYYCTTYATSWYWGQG
# T5 sequence (VL, as listed by the source, chain 2 of 2): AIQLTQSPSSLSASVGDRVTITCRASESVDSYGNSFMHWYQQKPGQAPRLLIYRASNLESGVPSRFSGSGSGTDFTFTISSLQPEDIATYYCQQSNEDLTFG
# T6 sequence (VH, as listed by the source, chain 1 of 2): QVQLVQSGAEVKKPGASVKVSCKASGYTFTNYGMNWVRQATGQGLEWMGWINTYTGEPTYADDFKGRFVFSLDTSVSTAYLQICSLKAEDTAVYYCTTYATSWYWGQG
# T8 sequence (VH, as listed by the source, chain 1 of 2): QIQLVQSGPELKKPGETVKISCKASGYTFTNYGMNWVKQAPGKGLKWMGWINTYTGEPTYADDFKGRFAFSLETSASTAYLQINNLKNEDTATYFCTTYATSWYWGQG
# T8 sequence (VL, as listed by the source, chain 2 of 2): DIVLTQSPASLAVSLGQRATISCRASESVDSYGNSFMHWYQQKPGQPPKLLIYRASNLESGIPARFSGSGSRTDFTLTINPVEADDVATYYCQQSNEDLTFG
binder,measurement,setting,value
DTHFPICIFCCGCCHRSKCGMCCKT (Synthetic 25 aa peptide; also called hep-25; Hep-25) [Human hepcidin peptide (hepcidin-25)],OD450 at 0.000 ng/well hepcidin,[1],0.408
same,OD450 at 0.137 ng/well hepcidin,[1],0.424
same,OD450 at 0.412 ng/well hepcidin,[1],0.415
same,OD450 at 1.235 ng/well hepcidin,[1],0.311
same,OD450 at 3.704 ng/well hepcidin,[1],0.166
same,OD450 at 11.111 ng/well hepcidin,[1],0.0849
same,OD450 at 33.333 ng/well hepcidin,[1],0.0336
same,OD450 at 100.000 ng/well hepcidin,[1],0.0144
same,OD450 at 0.000 ng/well hepcidin,[2],0.433
same,OD450 at 0.137 ng/well hepcidin,[2],0.446
same,OD450 at 0.412 ng/well hepcidin,[2],0.415
same,OD450 at 1.235 ng/well hepcidin,[2],0.301
same,OD450 at 3.704 ng/well hepcidin,[2],0.148
same,OD450 at 11.111 ng/well hepcidin,[2],0.0719
same,OD450 at 33.333 ng/well hepcidin,[2],0.0303
same,OD450 at 100.000 ng/well hepcidin,[2],0.0135
same,OD450 at 0.000 ng/well hepcidin,[3],0.812
same,OD450 at 0.137 ng/well hepcidin,[3],0.844
same,OD450 at 0.412 ng/well hepcidin,[3],0.814
same,OD450 at 1.235 ng/well hepcidin,[3],0.539
same,OD450 at 3.704 ng/well hepcidin,[3],0.279
same,OD450 at 11.111 ng/well hepcidin,[3],0.125
same,OD450 at 33.333 ng/well hepcidin,[3],0.0475
same,OD450 at 100.000 ng/well hepcidin,[3],0.0189
same,EC50,[4],0.0237 µg/mL
same,EC50,[5],0.0191 µg/mL
same,EC50,[6],0.0188 µg/mL
same,EC50,[7],0.0186 µg/mL
same,EC50,[8],0.0179 µg/mL
same,EC50,[9],0.0205 µg/mL
same,EC50,[10],0.0174 µg/mL
same,EC50,[11],≤ 0.005 µg/mL
same,EC50,[12],0.054 µg/mL
same,IC50 (read off the curve),[13],~2 ng/well
same,IC50 (read off the curve),[14],~2 ng/well
same,IC50 (read off the curve),[15],~2 ng/well
same,IC50 (read off the curve),[16],~2 ng/well
same,IC50 (read off the curve),[17],~2 ng/well
same,IC50 (read off the curve),[18],~2 ng/well
same,IC50 (read off the curve),[19],~2 ng/well
